Legend:
Test in all cases: co-IP
[1] = biological target: human translocase of outer mitochondrial membrane 22 homolog, C-terminal c-Myc and DDK tags (human) (UniProt Q9NS69)
[2] = biological target: human mitochondrial adenine nucleotide translocator, C-terminal c-Myc-DDK tag (human) (UniProt P12235)
[3] = biological target: human BKCa alpha-subunit starting from Met3, untagged (human)
[4] = biological target: Full length human BKCa alpha-subunit starting from Met1, 3xHA-tagged, without DEC (human)
Sequence of Full length human BKCa alpha-subunit starting from Met1, 3xHA-tagged, without DEC (human) (Q12791 whole entry, canonical isoform): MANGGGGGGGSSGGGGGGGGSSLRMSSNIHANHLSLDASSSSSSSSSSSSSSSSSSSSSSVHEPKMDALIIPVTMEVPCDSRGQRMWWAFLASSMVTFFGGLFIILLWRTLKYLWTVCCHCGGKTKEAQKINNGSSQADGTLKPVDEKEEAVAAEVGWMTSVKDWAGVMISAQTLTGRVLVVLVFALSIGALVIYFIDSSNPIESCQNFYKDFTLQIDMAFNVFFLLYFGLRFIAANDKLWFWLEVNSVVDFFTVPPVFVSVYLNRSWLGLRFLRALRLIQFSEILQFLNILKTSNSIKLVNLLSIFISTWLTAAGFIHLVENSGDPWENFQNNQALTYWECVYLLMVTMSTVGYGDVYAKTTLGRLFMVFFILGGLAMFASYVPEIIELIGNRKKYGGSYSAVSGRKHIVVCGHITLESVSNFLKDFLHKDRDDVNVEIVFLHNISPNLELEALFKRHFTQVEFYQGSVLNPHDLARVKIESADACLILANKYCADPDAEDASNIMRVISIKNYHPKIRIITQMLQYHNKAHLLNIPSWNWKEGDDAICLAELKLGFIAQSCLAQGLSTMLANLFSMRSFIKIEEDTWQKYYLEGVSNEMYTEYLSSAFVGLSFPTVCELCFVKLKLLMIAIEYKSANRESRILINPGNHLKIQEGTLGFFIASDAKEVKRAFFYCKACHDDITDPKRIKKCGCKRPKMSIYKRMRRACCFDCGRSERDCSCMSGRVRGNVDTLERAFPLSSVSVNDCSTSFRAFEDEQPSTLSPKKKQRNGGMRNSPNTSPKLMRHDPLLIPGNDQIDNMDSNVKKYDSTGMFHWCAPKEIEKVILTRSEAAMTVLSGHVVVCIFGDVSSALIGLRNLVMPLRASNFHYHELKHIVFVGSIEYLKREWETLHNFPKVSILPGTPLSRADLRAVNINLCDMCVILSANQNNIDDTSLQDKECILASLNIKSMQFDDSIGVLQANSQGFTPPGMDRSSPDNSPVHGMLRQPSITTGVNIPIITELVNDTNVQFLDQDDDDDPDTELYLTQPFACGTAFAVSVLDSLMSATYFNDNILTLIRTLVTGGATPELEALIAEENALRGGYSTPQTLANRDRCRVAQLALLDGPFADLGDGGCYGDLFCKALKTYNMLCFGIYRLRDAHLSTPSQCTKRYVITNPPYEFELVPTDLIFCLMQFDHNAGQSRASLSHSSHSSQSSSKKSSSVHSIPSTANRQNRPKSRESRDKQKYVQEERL

[5] = biological target: Full length human BKCa alpha-subunit starting from Met1, 3xHA-tagged, with DEC splice insert (human)
Sequence of Full length human BKCa alpha-subunit starting from Met1, 3xHA-tagged, with DEC splice insert (human) (Q12791 whole entry, canonical isoform): as above

Sequence of human BKCa alpha-subunit starting from Met3, untagged (human) (Q12791 whole entry): as the sequence (Q12791 whole entry, canonical isoform) above

Row | Co-IP efficiency (wild-type BKCa = 1) [1] | Co-IP efficiency (compared to wild-type BKCa) [2] | Molecule | further results
1 | 0.33 | 0.17 | c-Myc-BKCa 322-1113 (domain or fragment) | 
2 |  | 0.91 | c-Myc-BKCa 1-711 (domain or fragment) | 
3 | 0.42 | 0.33 | c-Myc-BKCa 679-1113 (domain or fragment) | 
4 |  |  | human mitochondrial adenine nucleotide translocator, C-terminal c-Myc-DDK tag (natural protein) MGDHAWSFLKDFLAGGVAAAVSKTAVAPIERVKLLLQVQHASKQISAEKQYKGIIDCVVRIPKEQGFLSFWRGNLANVIRYFPTQALNFAFKDKYKQLFLGGVDRHKQFWRYFAGNLASGGAAGATSLCFVYPLDFARTRLAADVGKGAAQREFHGLGDCIIKIFKSDGLRGLYQGFNVSVQGIIIYRAAYFGVYDTAKGMLPDPKNVHIFVSWMIAQSVTAVAGLVSYPFDTVRRRMMMQSGRKGADIMYTGTVDCWRKIAKDEGAKAFFKGAWSNVLRGMGGAFVLVLYDEIKKYV | Co-IP efficiency (BKCa-DEC = 1) [3]: 0.69
5 |  |  | human translocase of outer mitochondrial membrane 22 homolog, C-terminal c-Myc and DDK tags (natural protein) MAAAVAAAGAGEPQSPDELLPKGDAEKPEEELEEDDDEELDETLSERLWGLTEMFPERVRSAAGATFDLSLFVAQKMYRFSRAALWIGTTSFMILVLPVVFETEKLQMEQQQQLQQRQILLGPNTGLSGGMPGALPSLPGKI | Co-IP efficiency [4]: 0.89; Co-IP efficiency [5]: 0.91

From PMC5332438
